From the Immune Epitope Database (IEDB) come the findings set out here.

Targets include HLA-A*02:03; HLA-A*02:06; HLA-A*02:02.
Holding throughout (assay): IEDB peptide-MHC binding, purified MHC/competitive/radioactivity; filed as Kd, often an IC50 or EC50 that approximates it; ≥ and ≤ were set here for values at or beyond the usual limits of such assays
Setting [1] is: source organism: Vaccinia virus WR.
The mark [2] stands for this setting: source organism: Human immunodeficiency virus type 1 (CLONE 12).
The mark [3] stands for this setting: source organism: Mammarenavirus tacaribeense.
Setting [4] is: source organism: Mammarenavirus juninense.
[5] abbreviates: source organism: SARS coronavirus Tor2.
Where [6] appears, read: source organism: Mammarenavirus brazilense.

What is called Kd is the concentration at which binding is half-saturated. Take KLSMGLIAIA: in the test with HLA-A*02:03 (source organism: Dengue virus 4 Philippines/H241/1956), the Kd was found to be 22.9 nM.
Turning to CLTVPNITI, the values for the dissociation constant (Kd) in the test with HLA-A*02:06 (setting [1]), in the test with HLA-A*02:03 (setting [1]) and in the test with HLA-A*02:02 (setting [1]) were 1660 nM, 75.2 nM and 95.9 nM, respectively.
On the same counts, the results for SVDVDIYDAV are 3.3 nM, 9.18 nM and 0.427 nM.
On the same counts, the results for NITTLLNET are 2310 nM, 2900 nM and 1300 nM.
With RILQQLLFI, the Kd with HLA-A*02:06 (setting [2]) came to 21.6 nM; with HLA-A*02:03 (setting [2]) it was 543 nM.
For DLTAALRDV, the dissociation constant (Kd) in the test with HLA-A*02:06 (source organism: Homo sapiens) is at least 28100 nM.
INISGYNLSL: the Kd in the test with HLA-A*02:06 (setting [3]) came out at 11400 nM; with HLA-A*02:03 (setting [3]) it was 1360 nM; in the test with HLA-A*02:02 (setting [3]) it was 179 nM.
With YNFSLSAAV, the equilibrium dissociation constant (Kd) was at least 77000 nM in the test with HLA-A*02:06 (setting [4]), at least 78100 nM with HLA-A*02:03 (setting [4]) and at least 46200 nM in the test with HLA-A*02:02 (setting [4]).
As for SAFNDDGIYI, the figures for the Kd in the test with HLA-A*02:06 (setting [1]), in the test with HLA-A*02:03 (setting [1]) and in the test with HLA-A*02:02 (setting [1]) were 40.9 nM, 67.7 nM and 35.2 nM, respectively.
As for RVLIFILLTA, the Kd with HLA-A*02:06 (source organism: Dengue virus 2 Peru/IQT2913/1996) was 397 nM.
For KTDGAVTSPL, the Kd in the test with HLA-A*02:06 (setting [1]) is 347 nM; with HLA-A*02:03 (setting [1]) it was 400 nM; with HLA-A*02:02 (setting [1]), 61.9 nM.
On the same counts, the results for SINNQLMYDI are 4830 nM, 482 nM and 492 nM.
On the same counts, the results for YLLGDSDSVA are 135 nM, 22.8 nM and 1.97 nM.
For IIRVTTELNI the same measures were 13700 nM, 8760 nM and 9960 nM.
Regarding EILRNYLRL, the Kd in the test with HLA-A*02:06 (setting [1]) was 13000 nM; with HLA-A*02:03 (setting [1]) it was 2090 nM; with HLA-A*02:02 (setting [1]) it was 14000 nM.
As to KSFFWFNEV, the values for the equilibrium dissociation constant (Kd) with HLA-A*02:06 (setting [3]), with HLA-A*02:03 (setting [3]) and with HLA-A*02:02 (setting [3]) were 3.18 nM, 264 nM and 61.9 nM, respectively.
Regarding FTNSQIFNII, the figures for the Kd with HLA-A*02:06 (setting [1]), with HLA-A*02:03 (setting [1]) and with HLA-A*02:02 (setting [1]) were 1200 nM, 457 nM and 143 nM, respectively.
On the same counts, the results for KTKISVEKI are 10700 nM, 112 nM and 7600 nM.
On the same counts, the results for LTTVFIKYV are 130 nM, 676 nM and 3650 nM.
For IALALEQYGI, the dissociation constant Kd with HLA-A*02:06 (setting [1]) amounted to 1130 nM; with HLA-A*02:03 (setting [1]) it was 4920 nM; with HLA-A*02:02 (setting [1]), 980 nM.
On the same counts, the results for TAATKRYPGV are 5570 nM, 10500 nM and at least 25500 nM.
Turning to TLDAANHSI, the Kd with HLA-A*02:06 (setting [5]) amounted to 28.9 nM; with HLA-A*02:03 (setting [5]) it was 283 nM; with HLA-A*02:02 (setting [5]), 92.4 nM.
Turning to DTIAHINTLI, the Kd with HLA-A*02:06 (setting [1]) was at least 62200 nM; with HLA-A*02:03 (setting [1]) it was 114 nM; with HLA-A*02:02 (setting [1]), 1160 nM.
On the same counts, the results for YLGHSAGFT are 4550 nM, 225 nM and 874 nM.
On the same counts, the results for QTVDFTDCRT are 3640 nM, at least 54300 nM and at least 30500 nM.
On the same counts, the results for LTNKKYRCMA are at least 69800 nM, 5400 nM and at least 34800 nM.
For the sequence DIYDAVRAFL, the Kd worked out at 12100 nM with HLA-A*02:06 (setting [1]), 6950 nM with HLA-A*02:03 (setting [1]) and 1460 nM in the test with HLA-A*02:02 (setting [1]).
For SVQLSNNKYV the same measures were 8830 nM, 820 nM and 1220 nM.
On the same counts, the results for RLYNSLKRFT are 7290 nM, 444 nM and 1060 nM.
For IMKDGRVLV, the equilibrium dissociation constant (Kd) in the test with HLA-A*02:03 (source organism: Dengue virus 2 16681-PDK53) was 19 nM.
TTNNLLEQLI: the dissociation constant Kd was 13100 nM in the test with HLA-A*02:06 (setting [1]), at least 21000 nM with HLA-A*02:03 (setting [1]) and 8880 nM with HLA-A*02:02 (setting [1]).
Turning to IVCSKTVKNV, the dissociation constant Kd with HLA-A*02:06 (setting [1]) was determined as 2760 nM; with HLA-A*02:03 (setting [1]), 503 nM; with HLA-A*02:02 (setting [1]), 10800 nM.
On the same counts, the results for VAVNKSNKPL are 17600 nM, 5130 nM and 2750 nM.
For YIWIKNLET the same measures were 347 nM, 1180 nM and 12600 nM.
For ILIRTGLLV, the Kd with HLA-A*02:03 (source organism: Dengue virus 2 Jamaica/1409/1983) stood at 16.3 nM.
With ALSGVFCGV, the results for the Kd in the test with HLA-A*02:06 (setting [5]), in the test with HLA-A*02:03 (setting [5]) and in the test with HLA-A*02:02 (setting [5]) were 49.8 nM, 11.6 nM and 1.16 nM, respectively.
With PANINDKQIM, the Kd with HLA-A*02:06 (setting [1]) was 10900 nM; with HLA-A*02:03 (setting [1]), at least 43100 nM; with HLA-A*02:02 (setting [1]), at least 49500 nM.
YNYSLSAAV: the Kd stood at 88.4 nM with HLA-A*02:06 (setting [6]), 67.2 nM in the test with HLA-A*02:03 (setting [6]) and 78.9 nM with HLA-A*02:02 (setting [6]).
